Source: paper PMC3583661 (Molecular Biology of the Cell, 2013)

Biological target: the molecule itself
Test: co-IP

B1: Slk19 (recombinant; Slk19-HA-His and Slk19-Myc-His) (natural protein, budding yeast, UniProt Q08581 1-821, looked up)
chain: MNEVPTTPVRLILGQAQQREQNSENCSQERNPRTFNSEPDSSFNSPGSSQFVIHPHEPLEKEKDEKQDLDRSIDYGRSSALNNKNNANPLENIDINKMFDDKKSDSGTNDDKGGASTSDKHVLALNYSPIRVEMNSSEKRSDKNVDVDENDKEGSHINKKLKLQLESVPDLKQSSTKDIINDKEEIMSSPMAIDMIETNISPNKFIINDGVERNDSFNINTDTLKLENDINEKQQEEDFIKSNSNNVVNIDNAYKEKEDEENDITNSHINRLTPLYETSARESNSNEEGRNDYDDDNQLDIRHDNFQIVAKRNEELTDQIYHLNQMLNSLISKNESLSFQYEKLNKNHQLLIDLTNEKLDKLNTERESDIAKVEKFKKRIKELNTEIKVLNSNQKILQEKFDASITEVNHIKGEHENTVNTLQQNEKILNDKNVELENMKAELKGNNDKLSEYETTLNDLNSRIVQLNDKIESTDIVLKSKENELDNLKLSLKETLSISKDFNDSDLIGQINELISTKNNLQQKMDDLNNLNDDNLKVVQDKLIKNEETLKLKEAEIDSLNSEMDELKKQITSKDDEFKMWQSKYETVEDEAKIRNAEVTELNGDIEDLKESKLHLEETITELENKVHKLENECELEKQKFEKTSLELESLQLKNSNIQAEHIKELENLHENLISLQNELKISSDRITTLTKENEVLMEQNNNNNNSVTLSNDQKDRDDEKIKSLGKQVQDWKEKYEAKEKDTNKRLKLLAEDLYIQYSSKHEQKVKLLKKGYENKYQNKFDQLNLENKTLSEEIEQLNKQLSSEREEKQELLKLLENEKK
binding result: binds
